Molecular target: wild-type Bcl-xL (mouse full-length, adenovirus-expressed) (mouse) (UniProt Q64373)
Assay: native gel or EMSA; Blue Native PAGE (4-16% Bis-Tris) of the mitochondrial fraction of adenovirus-transduced TKPTS cells, extracted with 1% n-dodecyl-β-D-maltoside; blots probed for Bcl-xL, then Bax

## wild-type Bcl-xL (mouse full-length, adenovirus-expressed) (from UniProt Q64373-1 1-233) (natural protein)
  stoichiometry N: 2
